For experiment [1], the target named is T1, constitutively active human NPR1 mutant (W74R), recombinant antigen (human, UniProt P16066 33-473).
T1 construct: also called W74R hNPR1
T1 sequence: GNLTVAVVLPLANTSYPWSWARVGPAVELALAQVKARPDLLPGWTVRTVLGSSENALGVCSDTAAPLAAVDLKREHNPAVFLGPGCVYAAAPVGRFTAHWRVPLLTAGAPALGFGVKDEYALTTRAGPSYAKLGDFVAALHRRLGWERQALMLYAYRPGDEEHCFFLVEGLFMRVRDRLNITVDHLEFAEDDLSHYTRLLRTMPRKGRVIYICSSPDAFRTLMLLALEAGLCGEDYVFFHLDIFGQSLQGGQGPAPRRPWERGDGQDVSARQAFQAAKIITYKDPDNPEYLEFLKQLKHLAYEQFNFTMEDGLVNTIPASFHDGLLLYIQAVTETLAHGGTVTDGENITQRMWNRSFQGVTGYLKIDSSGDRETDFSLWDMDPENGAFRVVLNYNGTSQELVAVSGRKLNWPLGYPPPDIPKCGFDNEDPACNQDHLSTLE
Nature of the experiment: ELISA, IgG titrated on the antigen without ANP.

For experiment [2], the target named is T2, rat NPR1-ANP complex (rat).
T2 construct: Rat receptor antigen measured in the presence of ANP; also called rNPR1 + ANP; rNPR1-ANP-complex
T2 sequence (P18910 29-469, one chain of several): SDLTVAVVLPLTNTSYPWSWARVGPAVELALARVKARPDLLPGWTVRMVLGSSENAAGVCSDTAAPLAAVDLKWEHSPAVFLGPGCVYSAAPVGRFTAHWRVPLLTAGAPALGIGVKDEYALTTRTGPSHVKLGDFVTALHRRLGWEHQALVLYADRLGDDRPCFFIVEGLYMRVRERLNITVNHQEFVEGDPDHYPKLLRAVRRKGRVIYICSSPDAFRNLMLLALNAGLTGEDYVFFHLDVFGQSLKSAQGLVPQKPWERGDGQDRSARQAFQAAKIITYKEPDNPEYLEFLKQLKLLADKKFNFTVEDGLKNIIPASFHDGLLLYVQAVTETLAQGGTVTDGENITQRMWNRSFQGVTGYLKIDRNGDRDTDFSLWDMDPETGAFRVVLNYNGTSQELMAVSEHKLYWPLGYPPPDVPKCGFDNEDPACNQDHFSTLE
Put plainly: ELISA, IgG titrated on the antigen with 250 fold molar excess of ANP. A general note: ELISA stands for enzyme-linked immunosorbent assay.

The target of experiment [3] is T3, human NPR1 expressed on CHO-K1 cells in the presence of ANP (human, UniProt P01160 124-151).
T3 construct: also called hNPR1 CHO K1 + 100 nM ANP
T3 sequence: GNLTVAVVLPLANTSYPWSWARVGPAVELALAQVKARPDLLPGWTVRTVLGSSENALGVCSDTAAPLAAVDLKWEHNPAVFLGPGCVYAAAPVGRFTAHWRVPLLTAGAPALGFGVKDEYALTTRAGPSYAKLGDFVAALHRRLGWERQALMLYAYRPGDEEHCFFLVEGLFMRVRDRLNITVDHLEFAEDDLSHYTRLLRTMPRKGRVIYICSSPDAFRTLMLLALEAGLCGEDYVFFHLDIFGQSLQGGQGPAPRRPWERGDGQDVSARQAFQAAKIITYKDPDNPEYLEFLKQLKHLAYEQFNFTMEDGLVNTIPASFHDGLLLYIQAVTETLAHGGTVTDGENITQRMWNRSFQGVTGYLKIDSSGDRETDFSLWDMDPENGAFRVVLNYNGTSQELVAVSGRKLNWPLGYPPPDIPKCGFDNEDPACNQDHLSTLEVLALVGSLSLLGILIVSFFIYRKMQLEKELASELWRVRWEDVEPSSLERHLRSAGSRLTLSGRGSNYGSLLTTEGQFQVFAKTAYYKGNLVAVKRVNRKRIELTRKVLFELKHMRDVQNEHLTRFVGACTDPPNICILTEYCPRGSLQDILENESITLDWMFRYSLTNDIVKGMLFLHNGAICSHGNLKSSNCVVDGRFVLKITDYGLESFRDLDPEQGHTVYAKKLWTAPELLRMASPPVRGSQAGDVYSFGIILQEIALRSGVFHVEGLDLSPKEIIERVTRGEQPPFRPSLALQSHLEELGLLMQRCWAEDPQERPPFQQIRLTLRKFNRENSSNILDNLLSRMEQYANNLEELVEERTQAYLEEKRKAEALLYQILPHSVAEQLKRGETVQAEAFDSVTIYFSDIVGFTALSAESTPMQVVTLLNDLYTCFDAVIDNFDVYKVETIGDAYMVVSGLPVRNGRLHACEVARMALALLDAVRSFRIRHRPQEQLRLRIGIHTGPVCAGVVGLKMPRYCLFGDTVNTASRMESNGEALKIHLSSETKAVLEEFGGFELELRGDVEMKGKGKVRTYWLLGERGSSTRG
T3 sequence (peptide): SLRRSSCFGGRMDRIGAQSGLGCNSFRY
Put plainly: flow cytometry, 1 uM IgG, +100 nM ANP.

Experiment [4] has as its target T4, human NPR1-ANP complex (human, UniProt P01160 124-151, limits assumed).
T4 construct: Receptor antigen measured in the presence of ANP; also called hNPR1 + ANP; hNPR1-ANP-complex
T4 sequence: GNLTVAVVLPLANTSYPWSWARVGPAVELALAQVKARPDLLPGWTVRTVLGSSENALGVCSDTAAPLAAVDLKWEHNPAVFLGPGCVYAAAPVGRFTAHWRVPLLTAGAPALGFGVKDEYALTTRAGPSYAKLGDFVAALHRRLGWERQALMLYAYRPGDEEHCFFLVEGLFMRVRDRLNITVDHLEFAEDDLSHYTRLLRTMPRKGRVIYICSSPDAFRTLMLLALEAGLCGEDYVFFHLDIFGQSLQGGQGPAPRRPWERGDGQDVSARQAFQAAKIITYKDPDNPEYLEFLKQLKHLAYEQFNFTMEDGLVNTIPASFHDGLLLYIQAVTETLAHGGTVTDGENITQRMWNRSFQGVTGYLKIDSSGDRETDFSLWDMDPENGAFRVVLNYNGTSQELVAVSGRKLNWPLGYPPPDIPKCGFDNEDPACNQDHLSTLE
T4 sequence (peptide): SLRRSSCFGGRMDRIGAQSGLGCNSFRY
Nature of the experiment: ELISA, IgG titrated on the antigen with 250 fold molar excess of ANP [cont.].

In experiment [5] the target is T4, human NPR1-ANP complex. Nature of the experiment: ELISA, 1 uM IgG, +100 nM ANP.
Experiment [6] deals with T2, rat NPR1-ANP complex. Put plainly: ELISA, 1 uM IgG, +100 nM ANP.
Experiment [7] concerns the target T5, human NPR1 (Natriuretic Peptide Receptor 1), recombinant antigen (human, UniProt P16066 33-473).
T5 construct: also called hNPR1; NPR1-hFc
T5 sequence: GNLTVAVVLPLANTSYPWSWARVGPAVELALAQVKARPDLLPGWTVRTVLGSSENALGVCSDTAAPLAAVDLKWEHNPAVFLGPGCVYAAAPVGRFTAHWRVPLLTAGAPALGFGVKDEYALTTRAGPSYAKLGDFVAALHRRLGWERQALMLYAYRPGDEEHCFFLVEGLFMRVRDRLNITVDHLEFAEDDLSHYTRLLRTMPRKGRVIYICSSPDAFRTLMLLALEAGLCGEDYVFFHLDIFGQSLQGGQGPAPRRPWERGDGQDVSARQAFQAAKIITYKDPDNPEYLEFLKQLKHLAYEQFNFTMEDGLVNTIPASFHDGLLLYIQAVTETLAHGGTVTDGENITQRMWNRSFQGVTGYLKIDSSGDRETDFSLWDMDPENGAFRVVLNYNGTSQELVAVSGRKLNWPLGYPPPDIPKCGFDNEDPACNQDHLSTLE
Put plainly: FRET assay on hNPR1, competitor Cy5-labeled ANP [cont.].

Experiment [8] concerns the target T6, human NPR1 expressed on CHO-K1 cells (human, UniProt P16066 33-1061).
T6 sequence: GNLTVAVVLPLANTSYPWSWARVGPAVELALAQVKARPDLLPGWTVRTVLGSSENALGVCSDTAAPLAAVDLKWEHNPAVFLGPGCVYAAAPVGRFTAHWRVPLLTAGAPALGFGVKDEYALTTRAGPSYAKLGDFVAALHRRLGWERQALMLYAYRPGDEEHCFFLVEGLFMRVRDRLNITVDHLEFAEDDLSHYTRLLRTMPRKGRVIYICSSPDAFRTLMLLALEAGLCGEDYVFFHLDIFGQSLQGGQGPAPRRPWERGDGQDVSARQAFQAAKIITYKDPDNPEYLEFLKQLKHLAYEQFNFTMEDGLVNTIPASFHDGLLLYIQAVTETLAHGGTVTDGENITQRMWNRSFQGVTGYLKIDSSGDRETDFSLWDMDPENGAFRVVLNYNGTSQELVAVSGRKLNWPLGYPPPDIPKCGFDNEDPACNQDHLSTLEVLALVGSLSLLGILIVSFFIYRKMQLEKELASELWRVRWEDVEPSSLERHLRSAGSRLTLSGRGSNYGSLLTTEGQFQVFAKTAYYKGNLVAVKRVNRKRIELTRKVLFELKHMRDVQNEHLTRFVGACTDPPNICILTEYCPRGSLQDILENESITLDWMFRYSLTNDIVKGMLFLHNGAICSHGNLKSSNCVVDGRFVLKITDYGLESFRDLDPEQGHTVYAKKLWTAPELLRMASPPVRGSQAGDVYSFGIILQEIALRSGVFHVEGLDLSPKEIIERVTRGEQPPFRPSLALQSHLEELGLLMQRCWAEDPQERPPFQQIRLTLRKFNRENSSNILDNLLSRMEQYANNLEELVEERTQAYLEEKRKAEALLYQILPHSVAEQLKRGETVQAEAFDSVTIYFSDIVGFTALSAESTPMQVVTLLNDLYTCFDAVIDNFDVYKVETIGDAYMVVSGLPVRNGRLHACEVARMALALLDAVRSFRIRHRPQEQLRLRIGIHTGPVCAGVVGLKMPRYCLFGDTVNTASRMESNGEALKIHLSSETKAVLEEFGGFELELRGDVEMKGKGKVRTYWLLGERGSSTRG
Nature of the experiment: cell-based or functional assay.

Experiment [9] deals with T5, human NPR1 (Natriuretic Peptide …). Nature of the experiment: ELISA, IgG titrated on the antigen without ANP [cont.].
The target in experiment [10] is T1, constitutively active human NPR1 mutant …. The experiment is described as above.
Experiment [11] deals with T5, human NPR1 (Natriuretic Peptide …). Put plainly: ELISA, 1 uM IgG.
Experiment [12] concerns the target T1, constitutively active human NPR1 mutant …. Put plainly: ELISA, 1 uM IgG.
The target in experiment [13] is T6, human NPR1 expressed on CHO-K1 cells. Nature of the experiment: flow cytometry, 1 uM IgG.

B1: YY02 IgG (YY02_LALA) (antibody, V domains shown)
VH: EVQLVESGGGLVKPGGSLRLSCAASGFTFSSYSMNWVRQAPGKGLEWVSSISSSSSYIYYADSVKGRFTISRDNAKNSLYLQMNSLRAEDTAVYYCARSGYRGVYGFDYWGQGTLVTVSS
VL: DIQMTQSPSSVSASVGDRVTITCRASQGISSWLAWYQQKPGKAPKLLIYAASSLQSGVPSRFSGSGSGTDFTLTISSLQPEDFATYYCQQYYHSPLTFGQGTKVEIKR
For B1, in experiment [1], the “EC50 (read off the curve)” value is around 2 nM.

B2: XX03 IgG (antibody, V domains shown)
VH: EVQLLESGGGLVQPGGSLRLSCAASGFTFSSYWMNWVRQAPGKGLEWVSVIESKGNYIFYADSVKGRFTISRDNSKNTLYLQMNSLRAEDTAVYYCARDRYSMIYSYGAGAFDYWGQGTLVTVSS
VL: DIQMTQSPSSLSASVGDRVTITCRASQGISSYLAWYQQKPGKAPKLLIYTASTLQSGVPSRFSGSGSGTDFTLTISSLQPEDFATYYCMQSYEKPRTFGQGTKVEIKR
notes: also called XX03_LALA
As for B2, the “EC50 (read off the curve)” value in experiment [2] was around 0.2 nM.

B3: YY06 IgG (YY06_LALA) (antibody, V domains shown)
VH: EVQLLESGGGLVQPGGSLRLSCAASGFTFSSYAISWVRQAPGKGLEWVSAISGSGGSTYYAESVKGRFTISRDNSKNTLYLQMNSLRAEDTAVYYCARPYLGDRRSYGFDHWGQGTLVTVSS
VL: QSALTQPASVSGSPGQSITISCTGTSSDVGSYNLVSWYQQHPGKAPKLMIYEGSKRPSGVSNRFSGSKSGNTASLTISGLQAEDEADYYCSSYGFHIVVVVFGGGTKLTVLG
With B3, the “flow cytometry S/BG” value in experiment [3] was 18 S/BG; in experiment [13] it was 26 S/BG. Also, the “EC50 (read off the curve)” value in [4] is around 8 nM; in experiment [9] it was around 8 nM; in [10] it was around 5 nM. Also, the “ELISA IgG binding at 1 uM IgG (unit not given)” value was 102 in experiment [5], 4 in [6], 91 in experiment [11] and 83 in experiment [12]. Besides, the “IC50 (read off the curve)” value in [7] was around 5 nM. Further, in experiment [8], the “cGMP conc [nM] at 1 uM IgG, +0.075 nM ANP” value turned out to be 15 nM. In addition, in experiment [8], the “cGMP conc [nM] at 1 uM IgG, without ANP” value is 12 nM.

What is called EC50 (read off the curve) is the concentration needed to bring the measured effect to its halfway point.

The record behind these values is US20200392225A1 (Novartis, published 2020).
